Where a chain is given by its changes, count along the chain named. Numbers in names are those of the source. One block for each binder: values may come before it.
Target: T1, TNFR1 (Homo sapiens, UniProt P19438)
T1 chain: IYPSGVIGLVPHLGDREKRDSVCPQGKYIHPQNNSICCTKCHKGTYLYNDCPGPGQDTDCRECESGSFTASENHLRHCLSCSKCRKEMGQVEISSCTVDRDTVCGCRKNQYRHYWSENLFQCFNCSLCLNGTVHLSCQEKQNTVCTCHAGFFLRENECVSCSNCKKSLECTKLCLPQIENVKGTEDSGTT
Test: yeast display SC50

apparent Kd (screen): 1.69 nM
B1: K17L (designed binder)
chain: SMEEEVEKAAKEYEKKLKEAIEKHLEKLKAKDKEAAERFLKELEEAAKEYAKDEAKTMSEEEAKRRAKKYKEKVLLSELSEEEQKEIKEAEEKLVRTILKYVEEAAK

apparent Kd (screen): 0.869 nM
B2: K100Y (designed binder)
chain: B1 chain with L17K, K100Y

apparent Kd (screen): 1.54 nM
B3: E72G (designed binder)
chain: B1 chain with L17K, E72G

apparent Kd (screen): 1.27 nM
B4: K100R (designed binder)
chain: B1 chain with L17K, K100R

apparent Kd (screen): 0.446 nM
B5: A90H (designed binder)
chain: B1 chain with L17K, A90H

apparent Kd (screen): 0.956 nM
B6: K15A (designed binder)
chain: B1 chain with K15A, L17K

apparent Kd (screen): 1.4 nM
B7: E72Y (designed binder)
chain: B1 chain with L17K, E72Y

apparent Kd (screen): 0.446 nM
B8: A47M (designed binder)
chain: B1 chain with L17K, A47M

apparent Kd (screen): 0.446 nM
B9: K69I (designed binder)
chain: B1 chain with L17K, K69I

apparent Kd (screen): 0.49 nM
B10: L75C (designed binder)
chain: B1 chain with L17K, L75C

apparent Kd (screen): 1.86 nM
B11: T97A (designed binder)
chain: B1 chain with L17K, T97A

apparent Kd (screen): 12.5 nM
B12: E3I (designed binder)
chain: B1 chain with E3I, L17K

apparent Kd (screen): 0.79 nM
B13: K27A (designed binder)
chain: B1 chain with L17K, K27A

apparent Kd (screen): 3 nM
B14: A10W (designed binder)
chain: B1 chain with A10W, L17K

apparent Kd (screen): 1.69 nM
B15: E61L (designed binder)
chain: B1 chain with L17K, E61L

apparent Kd (screen): 0.653 nM
B16: E86A (designed binder)
chain: B1 chain with L17K, E86A

apparent Kd (screen): 0.49 nM
B17: K48N (designed binder)
chain: B1 chain with L17K, K48N

apparent Kd (screen): 0.49 nM
B18: E62N (designed binder)
chain: B1 chain with L17K, E62N

apparent Kd (screen): 0.539 nM
B19: K85A (designed binder)
chain: B1 chain with L17K, K85A

apparent Kd (screen): 2.25 nM
B20: S77T (designed binder)
chain: B1 chain with L17K, S77T

apparent Kd (screen): 1.4 nM
B21: L43G (designed binder)
chain: B1 chain with L17K, L43G

apparent Kd (screen): 12.5 nM
B22: A51I (designed binder)
chain: B1 chain with L17K, A51I

apparent Kd (screen): 0.446 nM
B23: K88C (designed binder)
chain: B1 chain with L17K, K88C

apparent Kd (screen): 8.56 nM
B24: A55G (designed binder)
chain: B1 chain with L17K, A55G

apparent Kd (screen): 20.2 nM
B25: E49I (designed binder)
chain: B1 chain with L17K, E49I

apparent Kd (screen): 1.27 nM
B26: Y101Q (designed binder)
chain: B1 chain with L17K, Y101Q

apparent Kd (screen): 0.446 nM
B27: L43Q (designed binder)
chain: B1 chain with L17K, L43Q

apparent Kd (screen): 0.49 nM
B28: E103S (designed binder)
chain: B1 chain with L17K, E103S

apparent Kd (screen): 0.49 nM
B29: K52R (designed binder)
chain: B1 chain with L17K, K52R

apparent Kd (screen): 0.593 nM
B30: E81I (designed binder)
chain: B1 chain with L17K, E81I

apparent Kd (screen): 1.54 nM
B31: K8W (designed binder)
chain: B1 chain with K8W, L17K

apparent Kd (screen): 0.446 nM
B32: K23E (designed binder)
chain: B1 chain with L17K, K23E

apparent Kd (screen): 6.43 nM
B33: M58I (designed binder)
chain: B1 chain with L17K, M58I

apparent Kd (screen): 1.4 nM
B34: E89A (designed binder)
chain: B1 chain with L17K, E89A

apparent Kd (screen): 7.07 nM
B35: E14S (designed binder)
chain: B1 chain with E14S, L17K

apparent Kd (screen): 16.7 nM
B36: V74N (designed binder)
chain: B1 chain with L17K, V74N

apparent Kd (screen): 0.593 nM
B37: A47G (designed binder)
chain: B1 chain with L17K, A47G

apparent Kd (screen): 0.446 nM
B38: K16H (designed binder)
chain: B1 chain with K16H, L17K

apparent Kd (screen): 0.653 nM
B39: E81L (designed binder)
chain: B1 chain with L17K, E81L

apparent Kd (screen): 0.446 nM
B40: E62F (designed binder)
chain: B1 chain with L17K, E62F

apparent Kd (screen): 0.49 nM
B41: A47Y (designed binder)
chain: B1 chain with L17K, A47Y

apparent Kd (screen): 12.5 nM
B42: L99R (designed binder)
chain: B1 chain with L17K, L99R

apparent Kd (screen): 0.653 nM
B43: E104Y (designed binder)
chain: B1 chain with L17K, E104Y

apparent Kd (screen): 0.869 nM
B44: A30H (designed binder)
chain: B1 chain with L17K, A30H

apparent Kd (screen): 1.54 nM
B45: E61G (designed binder)
chain: B1 chain with L17K, E61G

apparent Kd (screen): 0.49 nM
B46: E62S (designed binder)
chain: B1 chain with L17K, E62S

apparent Kd (screen): 1.69 nM
B47: E81D (designed binder)
chain: B1 chain with L17K, E81D

apparent Kd (screen): 0.79 nM
B48: D53N (designed binder)
chain: B1 chain with L17K, D53N

apparent Kd (screen): 5.84 nM
B49: A46E (designed binder)
chain: B1 chain with L17K, A46E

apparent Kd (screen): 1.05 nM
B50: K18Y (designed binder)
chain: B1 chain with L17K, K18Y

apparent Kd (screen): 22.2 nM
B51: M58D (designed binder)
chain: B1 chain with L17K, M58D

apparent Kd (screen): 0.49 nM
B52: E103P (designed binder)
chain: B1 chain with L17K, E103P

apparent Kd (screen): 0.446 nM
B53: A36G (designed binder)
chain: B1 chain with L17K, A36G

apparent Kd (screen): 0.49 nM
B54: A10K (designed binder)
chain: B1 chain with A10K, L17K

apparent Kd (screen): 0.446 nM
B55: A20M (designed binder)
chain: B1 chain with L17K, A20M

apparent Kd (screen): 2.73 nM
B56: D53C (designed binder)
chain: B1 chain with L17K, D53C

apparent Kd (screen): 3 nM
B57: A46I (designed binder)
chain: B1 chain with L17K, A46I

apparent Kd (screen): 0.956 nM
B58: A9L (designed binder)
chain: B1 chain with A9L, L17K

apparent Kd (screen): 0.593 nM
B59: E86K (designed binder)
chain: B1 chain with L17K, E86K
